One block for each binder: values may come before it.
Experiments:
[1] = molecular target: T1, E-selectin expressed on CHO cells (CHO:E-selectin) (UniProt P16581 22-610, limits assumed); experiment: plate coated with chimera; adhesion of 3H-labelled CHO:E-selectin cells (FIG. 15)
T1 construct: whole, on cells; also called E-selectin expressing CHO cells; CHO cells which express E-selectin
T1 sequence (looked up): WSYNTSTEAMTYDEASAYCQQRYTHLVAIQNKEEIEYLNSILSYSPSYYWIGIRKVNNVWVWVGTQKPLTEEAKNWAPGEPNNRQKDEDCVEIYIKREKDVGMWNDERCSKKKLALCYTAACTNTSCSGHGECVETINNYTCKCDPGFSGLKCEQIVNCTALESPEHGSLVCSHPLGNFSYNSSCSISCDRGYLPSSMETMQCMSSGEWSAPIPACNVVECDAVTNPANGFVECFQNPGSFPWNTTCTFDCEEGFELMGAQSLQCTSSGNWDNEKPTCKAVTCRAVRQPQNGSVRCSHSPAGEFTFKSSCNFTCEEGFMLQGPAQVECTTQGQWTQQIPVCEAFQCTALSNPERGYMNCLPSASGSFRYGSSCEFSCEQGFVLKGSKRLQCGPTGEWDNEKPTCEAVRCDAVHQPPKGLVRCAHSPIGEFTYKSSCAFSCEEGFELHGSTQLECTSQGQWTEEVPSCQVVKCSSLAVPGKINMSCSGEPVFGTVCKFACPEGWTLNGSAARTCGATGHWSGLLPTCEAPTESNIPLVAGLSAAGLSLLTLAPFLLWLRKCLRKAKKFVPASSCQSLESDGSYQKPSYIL
Procedure: (§1) Quantitative adhesion of CHO:P-selectin, CHO:E-selectin and CHO:L-selectin expressing cells was performed as described in Example 4(c), with the following modifications: COS cell and antibodies were omitted. Instead, 48-well microtiter plates (Costar) were coated for 16 hours at 4° C. with varying quantities of protein A-purified soluble PSGL-1/Fc chimeras. The unbound material was removed and the coated wells were treated with Hank's buffered saline (HBS) with 1 mg/ml BSA and 2 mM CaCl_2 for 1 hour at 4° C. Tritium labeled CHO selectin expressing cells were added and binding quantitated as described in Example 4(c).

[2] = molecular target: T2, P-selectin expressed on the surface of CHO cells (CHO:P-selectin cell line) (UniProt P16109 42-830, limits assumed); experiment: plate coated with chimera; adhesion of 3H-labelled CHO:P-selectin cells (FIG. 14)
T2 construct: whole, on cells; also called P-selectin expressing CHO cells
T2 sequence (looked up): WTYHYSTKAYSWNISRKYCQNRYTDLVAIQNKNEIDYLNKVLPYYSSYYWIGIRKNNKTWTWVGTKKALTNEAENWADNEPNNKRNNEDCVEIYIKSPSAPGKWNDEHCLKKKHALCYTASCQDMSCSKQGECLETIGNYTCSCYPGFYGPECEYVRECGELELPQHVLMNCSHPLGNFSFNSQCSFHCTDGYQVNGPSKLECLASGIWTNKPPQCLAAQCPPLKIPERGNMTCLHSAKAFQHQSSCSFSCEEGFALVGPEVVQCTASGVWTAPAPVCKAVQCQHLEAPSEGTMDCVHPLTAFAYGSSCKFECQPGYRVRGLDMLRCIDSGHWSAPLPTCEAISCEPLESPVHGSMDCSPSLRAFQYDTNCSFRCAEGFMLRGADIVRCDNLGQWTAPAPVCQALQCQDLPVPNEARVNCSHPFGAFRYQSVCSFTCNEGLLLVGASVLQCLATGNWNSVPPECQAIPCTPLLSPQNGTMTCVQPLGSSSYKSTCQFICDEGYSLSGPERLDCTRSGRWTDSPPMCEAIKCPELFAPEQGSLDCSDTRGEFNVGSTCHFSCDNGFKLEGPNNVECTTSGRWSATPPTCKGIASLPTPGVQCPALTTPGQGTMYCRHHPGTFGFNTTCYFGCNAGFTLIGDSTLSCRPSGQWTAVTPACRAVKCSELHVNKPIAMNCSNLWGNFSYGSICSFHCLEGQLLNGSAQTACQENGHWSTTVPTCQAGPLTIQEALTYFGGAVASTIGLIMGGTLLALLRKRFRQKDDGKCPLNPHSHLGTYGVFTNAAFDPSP
Procedure: as §1

[3] = molecular target: T3, chimeric protein comprising the extracellular domain of human E-selectin and the Fc portion of human IgG1 … (human, UniProt P16581 22-556); experiment: affinity precipitation from U937 membrane extracts; trace capture not excluded by the filing
T3 construct: extracellular domain; Built analogously to LEC-γ1; also called soluble E-selectin chimera; immobilized E-selectin; not shown: Fc portion of human IgG1
T3 sequence (looked up): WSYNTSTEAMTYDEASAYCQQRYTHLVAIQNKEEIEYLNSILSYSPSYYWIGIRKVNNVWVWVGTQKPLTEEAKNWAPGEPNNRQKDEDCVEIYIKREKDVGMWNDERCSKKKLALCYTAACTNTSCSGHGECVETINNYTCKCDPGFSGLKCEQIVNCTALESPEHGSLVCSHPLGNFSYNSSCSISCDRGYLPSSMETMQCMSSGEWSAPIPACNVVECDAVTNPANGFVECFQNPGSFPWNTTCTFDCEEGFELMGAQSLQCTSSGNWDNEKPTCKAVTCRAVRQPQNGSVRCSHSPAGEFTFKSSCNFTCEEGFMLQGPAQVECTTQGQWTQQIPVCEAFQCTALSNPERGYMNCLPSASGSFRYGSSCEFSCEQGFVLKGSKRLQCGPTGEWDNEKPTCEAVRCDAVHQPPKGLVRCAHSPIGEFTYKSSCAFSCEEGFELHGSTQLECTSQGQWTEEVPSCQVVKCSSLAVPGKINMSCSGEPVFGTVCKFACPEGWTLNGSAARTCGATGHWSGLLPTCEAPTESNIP

- binding result [1]: binds
- binding result [2]: no binding
B1: ΔY148.Fc, amino acids 42-189 of SEQ ID NO:2 with amino acids 46-52 deleted (Fc fusion)
chain: QATEFLPETEPPEMLRNSTDTTPLTGPGTPESTTVEPAARRSTGLDAGGAVTELTTELANMGNLSTDSAAMEIQTTQPAATEAQTTPLAATEAQTTRLTATEAQTTPLAATEAQTTPPAATEAQTTQPTGLEAQTTAPAAM
modifications: glycosylated, co-expressed with 3/4FT
notes: also called pED.ΔY148.Fc product; not shown: NotI junction/linker of pED.Fc; Fc region of a human IgG1

- binding result [3]: no binding
B2: CD43 (leukosialin) of U937 cells (other, human, UniProt P16150 20-400, looked up)
chain: STTAVQTPTSGEPLVSTSEPLSSKMYTTSITSDPKADSTGDQTSALPPSTSINEGSPLWTSIGASTGSPLPEPTTYQEVSIKMSSVPQETPHATSHPAVPITANSLGSHTVTGGTITTNSPETSSRTSGAPVTTAASSLETSRGTSGPPLTMATVSLETSKGTSGPPVTMATDSLETSTGTTGPPVTMTTGSLEPSSGASGPQVSSVKLSTMMSPTTSTNASTVPFRNPDENSRGMLPVAVLVALLAVIVLVALLLLWRRRQKRRTGALVLSRGGKRNGVVDAWAGPAQVPEEGAVTVTVGGSGGDKGSGFPDGEGSSRRPTLTTFFGRRKSRQGSLAMEELKSGSGPSLKGEEEPLVASEDGAVDAPAPDEPEGGDGAAP
modifications: native myeloid glycosylation

Source: patent US7563760 (GENETICS INSTITUTE, dated 2009)
